Data reported in PMC7367873, “Dissecting the sequence determinants for dephosphorylation by the catalytic subunits of phosphatases PP1 and PP2A” (Nature Communications, 2020).

B1: SORBS2 (protein, UniProt O94875 1-1100, looked up)
Sorbin and SH3 …: MSYYQRPFSPSAYSLPASLNSSIVMQHGTSLDSTDTYPQHAQSLDGTTSSSIPLYRSSEEEKRVTVIKAPHYPGIGPVDESGIPTAIRTTVDRPKDWYKTMFKQIHMVHKPDDDTDMYNTPYTYNAGLYNPPYSAQSHPAAKTQTYRPLSKSHSDNSPNAFKDASSPVPPPHVPPPVPPLRPRDRSSTEKHDWDPPDRKVDTRKFRSEPRSIFEYEPGKSSILQHERPASLYQSSIDRSLERPMSSASMASDFRKRRKSEPAVGPPRGLGDQSASRTSPGRVDLPGSSTTLTKSFTSSSPSSPSRAKGGDDSKICPSLCSYSGLNGNPSSELDYCSTYRQHLDVPRDSPRAISFKNGWQMARQNAEIWSSTEETVSPKIKSRSCDDLLNDDCDSFPDPKVKSESMGSLLCEEDSKESCPMAWGSPYVPEVRSNGRSRIRHRSARNAPGFLKMYKKMHRINRKDLMNSEVICSVKSRILQYESEQQHKDLLRAWSQCSTEEVPRDMVPTRISEFEKLIQKSKSMPNLGDDMLSPVTLEPPQNGLCPKRRFSIEYLLEEENQSGPPARGRRGCQSNALVPIHIEVTSDEQPRAHVEFSDSDQDGVVSDHSDYIHLEGSSFCSESDFDHFSFTSSESFYGSSHHHHHHHHHHHRHLISSCKGRCPASYTRFTTMLKHERARHENTEEPRRQEMDPGLSKLAFLVSPVPFRRKKNSAPKKQTEKAKCKASVFEALDSALKDICDQIKAEKKRGSLPDNSILHRLISELLPDVPERNSSLRALRRSPLHQPLHPLPPDGAIHCPPYQNDCGRMPRSASFQDVDTANSSCHHQDRGGALQDRESPRSYSSTLTDMGRSAPRERRGTPEKEKLPAKAVYDFKAQTSKELSFKKGDTVYILRKIDQNWYEGEHHGRVGIFPISYVEKLTPPEKAQPARPPPPAQPGEIGEAIAKYNFNADTNVELSLRKGDRVILLKRVDQNWYEGKIPGTNRQGIFPVSYVEVVKKNTKGAEDYPDPPIPHSYSSDRIHSLSSNKPQRPVFTHENIQGGGEPFQALYNYTPRNEDELELRESDVIDVMEKCDDGWFVGTSRRTKFFGTFPGNYVKRL
B2: CYFIP1 (protein, UniProt Q7L576 1-1253, looked up)
Cytoplasmic FMR1-interacting …: MAAQVTLEDALSNVDLLEELPLPDQQPCIEPPPSSLLYQPNFNTNFEDRNAFVTGIARYIEQATVHSSMNEMLEEGQEYAVMLYTWRSCSRAIPQVKCNEQPNRVEIYEKTVEVLEPEVTKLMNFMYFQRNAIERFCGEVRRLCHAERRKDFVSEAYLITLGKFINMFAVLDELKNMKCSVKNDHSAYKRAAQFLRKMADPQSIQESQNLSMFLANHNKITQSLQQQLEVISGYEELLADIVNLCVDYYENRMYLTPSEKHMLLKVMGFGLYLMDGSVSNIYKLDAKKRINLSKIDKYFKQLQVVPLFGDMQIELARYIKTSAHYEENKSRWTCTSSGSSPQYNICEQMIQIREDHMRFISELARYSNSEVVTGSGRQEAQKTDAEYRKLFDLALQGLQLLSQWSAHVMEVYSWKLVHPTDKYSNKDCPDSAEEYERATRYNYTSEEKFALVEVIAMIKGLQVLMGRMESVFNHAIRHTVYAALQDFSQVTLREPLRQAIKKKKNVIQSVLQAIRKTVCDWETGHEPFNDPALRGEKDPKSGFDIKVPRRAVGPSSTQLYMVRTMLESLIADKSGSKKTLRSSLEGPTILDIEKFHRESFFYTHLINFSETLQQCCDLSQLWFREFFLELTMGRRIQFPIEMSMPWILTDHILETKEASMMEYVLYSLDLYNDSAHYALTRFNKQFLYDEIEAEVNLCFDQFVYKLADQIFAYYKVMAGSLLLDKRLRSECKNQGATIHLPPSNRYETLLKQRHVQLLGRSIDLNRLITQRVSAAMYKSLELAIGRFESEDLTSIVELDGLLEINRMTHKLLSRYLTLDGFDAMFREANHNVSAPYGRITLHVFWELNYDFLPNYCYNGSTNRFVRTVLPFSQEFQRDKQPNAQPQYLHGSKALNLAYSSIYGSYRNFVGPPHFQVICRLLGYQGIAVVMEELLKVVKSLLQGTILQYVKTLMEVMPKICRLPRHEYGSPGILEFFHHQLKDIVEYAELKTVCFQNLREVGNAILFCLLIEQSLSLEEVCDLLHAAPFQNILPRVHVKEGERLDAKMKRLESKYAPLHLVPLIERLGTPQQIAIAREGDLLTKERLCCGLSMFEVILTRIRSFLDDPIWRGPLPSNGVMHVDECVEFHRLWSAMQFVYCIPVGTHEFTVEQCFGDGLHWAGCMIIVLLGQQRRFAVLDFCYHLLKVQKHDGKDEIIKNVPLKKMVERIRKFQILNDEIITILDKYLKSGDGEGTPVEHVRCFQPPIHQSLASS
B3: HDAC4 (protein, UniProt P56524 1-1084, looked up)
Histone deacetylase 4: MSSQSHPDGLSGRDQPVELLNPARVNHMPSTVDVATALPLQVAPSAVPMDLRLDHQFSLPVAEPALREQQLQQELLALKQKQQIQRQILIAEFQRQHEQLSRQHEAQLHEHIKQQQEMLAMKHQQELLEHQRKLERHRQEQELEKQHREQKLQQLKNKEKGKESAVASTEVKMKLQEFVLNKKKALAHRNLNHCISSDPRYWYGKTQHSSLDQSSPPQSGVSTSYNHPVLGMYDAKDDFPLRKTASEPNLKLRSRLKQKVAERRSSPLLRRKDGPVVTALKKRPLDVTDSACSSAPGSGPSSPNNSSGSVSAENGIAPAVPSIPAETSLAHRLVAREGSAAPLPLYTSPSLPNITLGLPATGPSAGTAGQQDAERLTLPALQQRLSLFPGTHLTPYLSTSPLERDGGAAHSPLLQHMVLLEQPPAQAPLVTGLGALPLHAQSLVGADRVSPSIHKLRQHRPLGRTQSAPLPQNAQALQHLVIQQQHQQFLEKHKQQFQQQQLQMNKIIPKPSEPARQPESHPEETEEELREHQALLDEPYLDRLPGQKEAHAQAGVQVKQEPIESDEEEAEPPREVEPGQRQPSEQELLFRQQALLLEQQRIHQLRNYQASMEAAGIPVSFGGHRPLSRAQSSPASATFPVSVQEPPTKPRFTTGLVYDTLMLKHQCTCGSSSSHPEHAGRIQSIWSRLQETGLRGKCECIRGRKATLEELQTVHSEAHTLLYGTNPLNRQKLDSKKLLGSLASVFVRLPCGGVGVDSDTIWNEVHSAGAARLAVGCVVELVFKVATGELKNGFAVVRPPGHHAEESTPMGFCYFNSVAVAAKLLQQRLSVSKILIVDWDVHHGNGTQQAFYSDPSVLYMSLHRYDDGNFFPGSGAPDEVGTGPGVGFNVNMAFTGGLDPPMGDAEYLAAFRTVVMPIASEFAPDVVLVSSGFDAVEGHPTPLGGYNLSARCFGYLTKQLMGLAGGRIVLALEGGHDLTAICDASEACVSALLGNELDPLPEKVLQQRPNANAVRSMEKVMEIHSKYWRCLQRTTSTAGRSLIEAQTCENEEAETVTAMASLSVGVKPAEKRPDEEPMEEEPPL
B4: ZYX (protein, UniProt Q15942 2-572, looked up)
Zyxin: AAPRPSPAISVSVSAPAFYAPQKKFGPVVAPKPKVNPFRPGDSEPPPAPGAQRAQMGRVGEIPPPPPEDFPLPPPPLAGDGDDAEGALGGAFPPPPPPIEESFPPAPLEEEIFPSPPPPPEEEGGPEAPIPPPPQPREKVSSIDLEIDSLSSLLDDMTKNDPFKARVSSGYVPPPVATPFSSKSSTKPAAGGTAPLPPWKSPSSSQPLPQVPAPAQSQTQFHVQPQPQPKPQVQLHVQSQTQPVSLANTQPRGPPASSPAPAPKFSPVTPKFTPVASKFSPGAPGGSGSQPNQKLGHPEALSAGTGSPQPPSFTYAQQREKPRVQEKQHPVPPPAQNQNQVRSPGAPGPLTLKEVEELEQLTQQLMQDMEHPQRQNVAVNELCGRCHQPLARAQPAVRALGQLFHIACFTCHQCAQQLQGQQFYSLEGAPYCEGCYTDTLEKCNTCGEPITDRMLRATGKAYHPHCFTCVVCARPLEGTSFIVDQANRPHCVPDYHKQYAPRCSVCSEPIMPEPGRDETVRVVALDKNFHMKCYKCEDCGKPLSIEADDNGCFPLDGHVLCRKCHTARAQT
B5: BAIAP2 (protein, UniProt Q9UQB8 1-552, looked up)
BAR/IMD domain-containing …: MSLSRSEEMHRLTENVYKTIMEQFNPSLRNFIAMGKNYEKALAGVTYAAKGYFDALVKMGELASESQGSKELGDVLFQMAEVHRQIQNQLEEMLKSFHNELLTQLEQKVELDSRYLSAALKKYQTEQRSKGDALDKCQAELKKLRKKSQGSKNPQKYSDKELQYIDAISNKQGELENYVSDGYKTALTEERRRFCFLVEKQCAVAKNSAAYHSKGKELLAQKLPLWQQACADPSKIPERAVQLMQQVASNGATLPSALSASKSNLVISDPIPGAKPLPVPPELAPFVGRMSAQESTPIMNGVTGPDGEDYSPWADRKAAQPKSLSPPQSQSKLSDSYSNTLPVRKSVTPKNSYATTENKTLPRSSSMAAGLERNGRMRVKAIFSHAAGDNSTLLSFKEGDLITLLVPEARDGWHYGESEKTKMRGWFPFSYTRVLDSDGSDRLHMSLQQGKSSSTGNLLDKDDLAIPPPDYGAASRAFPAQTASGFKQRPYSVAVPAFSQGLDDYGARSMSRNPFAHVQLKPTVTNDRCDLSAQGPEGREHGDGSARTLAGR
B6: SND1 (protein, UniProt Q7KZF4 2-910, looked up)
Staphylococcal nuclease …: ASSAQSGGSSGGPAVPTVQRGIIKMVLSGCAIIVRGQPRGGPPPERQINLSNIRAGNLARRAAATQPDAKDTPDEPWAFPAREFLRKKLIGKEVCFTIENKTPQGREYGMIYLGKDTNGENIAESLVAEGLATRREGMRANNPEQNRLSECEEQAKAAKKGMWSEGNGSHTIRDLKYTIENPRHFVDSHHQKPVNAIIEHVRDGSVVRALLLPDYYLVTVMLSGIKCPTFRREADGSETPEPFAAEAKFFTESRLLQRDVQIILESCHNQNILGTILHPNGNITELLLKEGFARCVDWSIAVYTRGAEKLRAAERFAKERRLRIWRDYVAPTANLDQKDKQFVAKVMQVLNADAIVVKLNSGDYKTIHLSSIRPPRLEGENTQDKNKKLRPLYDIPYMFEAREFLRKKLIGKKVNVTVDYIRPASPATETVPAFSERTCATVTIGGINIAEALVSKGLATVIRYRQDDDQRSSHYDELLAAEARAIKNGKGLHSKKEVPIHRVADISGDTQKAKQFLPFLQRAGRSEAVVEYVFSGSRLKLYLPKETCLITFLLAGIECPRGARNLPGLVQEGEPFSEEATLFTKELVLQREVEVEVESMDKAGNFIGWLHIDGANLSVLLVEHALSKVHFTAERSSYYKSLLSAEEAAKQKKEKVWAHYEEQPVEEVMPVLEEKERSASYKPVFVTEITDDLHFYVQDVETGTQLEKLMENMRNDIASHPPVEGSYAPRRGEFCIAKFVDGEWYRARVEKVESPAKIHVFYIDYGNREVLPSTRLGTLSPAFSTRVLPAQATEYAFAFIQVPQDDDARTDAVDSVVRDIQNTQCLLNVEHLSAGCPHVTLQFADSKGDVGLGLVKEGLVMVEVRKEKQFQKVITEYLNAQESAKSARLNLWRYGDFRADDADEFGYSR

What was measured:
GFP-14-3-3β = GFP-14-3-3β co-IP with LC-MS/MS, untreated GFP-14-3-3β versus GFP control (14-3-3 interactome); type: binding, human
[1] = system: GFP-14-3-3β and its binding proteins; assay: GFP-14-3-3β co-IP with LC-MS/MS label-free quantification, untreated versus PP1c-treated; parameters: species or system human
[2] = pairwise comparison untreated GFP-14-3-3β vs GFP, student's t-test, 3 replicates each, LC-MS/MS label-free quantification
[3] = pairwise comparison PP1 vs untreated, student's t-test, 3 replicates each, LC-MS/MS label-free quantification
[4] = untreated vs GFP, LFQ intensities, replicates 1-3
[5] = PP1 vs untreated, LFQ intensities, replicates 1-3

Molecule | Difference (log2), untreated vs GFP (GFP-14-3-3β; [2]) | Difference (log2), PP1 vs untreated [1, 3] | Difference (log2), untreated vs GFP (GFP-14-3-3β; [4]) | Difference (log2), PP1 vs untreated [1, 5] | also measured
B1 | 3.7091 log2 | -2.05 log2 | – | – | –
B2 | 3.924 log2 | -2.17 log2 | – | – | –
B3 | 7.6192 log2 | -2.1937 log2 | – | – | –
B4 | – | – | -0.162 log2 | -2.012 log2 | –
B5 | – | – | 2.991 log2 | -1.977 log2 | –
B6 | – | – | – | – | Difference (log2), untreated vs GFP (GFP-14-3-3β; log2 difference, pairwise comparison untreated vs GFP, label-free quantification, 3 replicates each): -0.5008; Difference (log2), PP1 vs untreated ([1]; log2 difference, pairwise comparison PP1 vs untreated, label-free quantification, 3 replicates each): 1.5668
